Patent US20110192416A1

Molecular target: human hair (keratin-containing material) (human)
Test: Hair adherence test: His-tagged protein incubated with cut human hair, detected with anti-poly-histidine peroxidase conjugate and TMB; buffer background 0.05

absorption at 405 nm: 0.12 A405
Substance: comparable protein YaaD of B. subtilis with a His-tag (from UniProt P37527 1-294)
